This note sets out measurements from patent US20240360242A1 (KISOJI BIOTECHNOLOGY, published 2024).

T1: HEK-TROP2 Δ27-104 (human, UniProt P09758)
T1 sequence (membrane protein on transfected HEK cells, looked up): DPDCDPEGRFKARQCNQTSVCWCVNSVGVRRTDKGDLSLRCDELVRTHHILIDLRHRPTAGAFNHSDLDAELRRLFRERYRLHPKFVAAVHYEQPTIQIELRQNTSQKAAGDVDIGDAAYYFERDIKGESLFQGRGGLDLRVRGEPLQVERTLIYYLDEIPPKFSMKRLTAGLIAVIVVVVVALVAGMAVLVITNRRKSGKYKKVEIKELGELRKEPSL

T2: HEK-TROP2 Δ27-114 (human, UniProt P09758)
T2 construct: deletion of residues 27-114, transiently expressed on HEK cells
T2 sequence (membrane protein on transfected HEK cells, looked up): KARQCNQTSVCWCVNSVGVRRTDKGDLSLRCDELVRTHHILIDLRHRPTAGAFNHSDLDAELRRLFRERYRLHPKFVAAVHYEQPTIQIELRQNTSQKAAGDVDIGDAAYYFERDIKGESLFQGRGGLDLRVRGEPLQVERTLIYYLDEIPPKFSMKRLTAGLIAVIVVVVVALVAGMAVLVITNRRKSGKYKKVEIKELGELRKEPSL

T3: HEK-TROP2 Δ27-44
T3 construct: also called TROP2 delta 27-44
T3 membrane protein on transfected HEK cells: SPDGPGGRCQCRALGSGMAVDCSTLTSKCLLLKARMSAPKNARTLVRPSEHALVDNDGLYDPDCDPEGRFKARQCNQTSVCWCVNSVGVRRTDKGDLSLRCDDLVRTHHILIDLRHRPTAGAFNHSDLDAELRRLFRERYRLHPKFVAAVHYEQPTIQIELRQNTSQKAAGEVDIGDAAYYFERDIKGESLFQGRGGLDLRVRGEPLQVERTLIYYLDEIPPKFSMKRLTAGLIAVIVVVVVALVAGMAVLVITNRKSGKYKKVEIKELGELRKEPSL

T4: HEK-TROP2 Δ27-73 (human, UniProt P09758)
T4 construct: deletion of residues 27-73, transiently expressed on HEK cells
T4 sequence (membrane protein on transfected HEK cells, looked up): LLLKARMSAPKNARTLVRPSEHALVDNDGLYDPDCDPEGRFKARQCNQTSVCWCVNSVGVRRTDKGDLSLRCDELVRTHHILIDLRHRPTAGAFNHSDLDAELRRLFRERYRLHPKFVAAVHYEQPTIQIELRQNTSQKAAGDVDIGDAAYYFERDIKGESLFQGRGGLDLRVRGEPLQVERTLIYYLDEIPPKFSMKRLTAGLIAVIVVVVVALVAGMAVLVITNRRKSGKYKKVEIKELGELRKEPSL

T5: HEK-TROP2 Δ27-85 (human, UniProt P09758)
T5 construct: deletion of residues 27-85, transiently expressed on HEK cells
T5 sequence (membrane protein on transfected HEK cells, looked up): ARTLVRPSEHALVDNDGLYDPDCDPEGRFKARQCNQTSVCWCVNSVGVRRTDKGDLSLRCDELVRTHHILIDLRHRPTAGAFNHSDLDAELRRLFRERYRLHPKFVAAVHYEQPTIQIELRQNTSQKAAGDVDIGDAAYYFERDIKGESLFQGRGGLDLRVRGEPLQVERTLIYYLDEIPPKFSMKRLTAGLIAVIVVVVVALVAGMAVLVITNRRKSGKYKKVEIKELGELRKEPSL

T6: HEK-TROP2 Δ27-96 (human, UniProt P09758)
T6 construct: deletion of residues 27-96, transiently expressed on HEK cells
T6 sequence (membrane protein on transfected HEK cells, looked up): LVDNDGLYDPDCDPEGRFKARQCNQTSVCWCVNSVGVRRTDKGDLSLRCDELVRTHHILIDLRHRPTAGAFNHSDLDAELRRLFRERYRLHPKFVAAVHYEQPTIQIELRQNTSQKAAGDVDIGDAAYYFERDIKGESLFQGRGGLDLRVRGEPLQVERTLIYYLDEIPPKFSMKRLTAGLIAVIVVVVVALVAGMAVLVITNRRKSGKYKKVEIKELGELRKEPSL

T7: TROP2 delta 27-56 on HEK cells (human, UniProt P09758 1-323)
T7 construct: Human TROP2 with residues 27-56 deleted, transiently transfected into HEK cells; also called TROP2 with 27-56 regions truncated
T7 chain: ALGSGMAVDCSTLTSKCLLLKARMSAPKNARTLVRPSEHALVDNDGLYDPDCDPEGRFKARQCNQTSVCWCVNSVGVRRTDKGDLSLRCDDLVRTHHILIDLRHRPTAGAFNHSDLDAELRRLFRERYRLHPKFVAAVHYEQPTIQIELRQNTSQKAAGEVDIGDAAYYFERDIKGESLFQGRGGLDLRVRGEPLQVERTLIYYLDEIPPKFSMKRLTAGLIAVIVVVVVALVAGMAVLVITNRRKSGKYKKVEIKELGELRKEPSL

B1: KD001 (antibody, human IgG1, V domains shown)
VH: QVQLQESGGGMVHPGGSLRLSCAASGFTFSGSDMSWVRQAPGKGPEWVSYITSGGTTYYPDSVKGRFTISRDNAKNTLYLQMNSLTPDDTALYRCAKARLTDSHYVEDAWGQGTQVTVSS
notes: also called anti-TROP2 sdAb KD001
B2: KD005 (antibody, human IgG1, V domains shown)
VH: B1 VH with M11L, H13E, P14A, T86K, A98S
notes: also called anti-TROP2 sdAb KD005
B3: KD004 (antibody, human IgG1, V domains shown)
VH: B1 VH with M11L, H13Q, G16R, S53G, G54S, I69T, T77M, T86K
notes: also called anti-TROP2 sdAb KD004
B4: KD007 (antibody, human IgG1, V domains shown)
VH: QVQLQESGGGLVQPGGSLRLSCAASGFAFSFYAMAWYRQAPGKQRDMVATITAYGNTNYADSVKGRFTTSRDNAKNTVYLQMNSLKPEDTAVYVCNANLPSASHNYWGQGTQVTVSS
notes: also called anti-TROP2 sdAb KD007
B5: KD002 (antibody, human IgG1, V domains shown)
VH: QVQLQESGGGMVQVGGSLRLSCAASGFPFSSADMSWVRQAPGKGPEWVSYINADGSKTYYPDSVKGRFTISRDNAKNTLYLLMNNLKPEDTALYRCARAKLTDTHYVEDYWGQGTQVTVSS
notes: also called anti-TROP2 sdAb KD002
B6: KD003 (antibody, human IgG1, V domains shown)
VH: B5 VH with V14P, P28T, S31N, A32Y, D54G, K57N, Y59D, T78M
notes: also called anti-TROP2 sdAb KD003

Numbering of substitutions follows the chain as printed.

The target in the first test is T1, HEK-TROP2 Δ27-104. Put plainly: flow cytometry, 100 nM antibody, transiently transfected HEK cells, APC anti-human Fc. Here is the method:
(§1) To determine the effect of TROP2 truncations on the binding ability of anti-TROP2 sdAbs, the HEK parental cells were transiently transfected with human TROP2 mutants by lipofectamine. 24 hours after transfection, cells were collected and stained with anti-TROP2 antibodies (FIG. 13A and FIG. 13B). In brief, 1×10⁵ cells were incubated with an Fc receptor blocking antibody (1/100 dilution) for 10 minutes at room temperature. Anti-TROP2 antibodies were diluted in FACS staining buffer to 100 nM and added and incubated with cells for 30 minutes on ice. After washing three times with FACS staining buffer, APC-conjugated secondary antibodies recognizing the human Fc region (Biolegend, Cat #410712) were mixed with cells. After staining for 30 minutes, cells were washed three times, followed by resuspension into 100 μL of 7-Amino-Actinomycin D (7-AAD) solution (BD Biosciences, Cat #559925).
On the technique in general: In flow cytometry, cells or beads pass a laser one at a time.
B1: the binding result is given as “no binding (tested: 100 nM)”.

Take B2: the binding result was “no binding (tested: 100 nM)”.

Turning to B3, the binding result was “no binding (tested: 100 nM)”.

As for B4, the binding result was “no binding (tested: 100 nM)”.

Regarding B5, the binding result is given as “no binding (tested: 100 nM)”.

For B6, the binding result was “no binding (tested: 100 nM)”.

The target of another test is T2, HEK-TROP2 Δ27-114. Described as above. Here is the method:
as §1
Consider B1, for which the binding result is listed as “no binding (tested: 100 nM)”.

With B2, the binding result is listed as “no binding (tested: 100 nM)”.

Take B3: the binding result is on record as “no binding (tested: 100 nM)”.

As to B4, the binding result is “no binding (tested: 100 nM)”.

Consider B5, for which the binding result is given as “no binding (tested: 100 nM)”.

Regarding B6, the binding result is reported as “no binding (tested: 100 nM)”.

The target of a further test is T3, HEK-TROP2 Δ27-44. The description is as above. The procedure:
as §1
For the molecule B1, the binding result is on record as “binds”.

On to B2, for which the binding result is “binds”.

For B3, the binding result was “binds”.

Turning to B4, the binding result is on record as “no binding (tested: 100 nM)”.

Take B5: the binding result is listed as “binds”.

On to B6, for which the binding result is on record as “binds”.

Another test has as its target T4, HEK-TROP2 Δ27-73. Described as above. The procedure:
as §1
Consider B1, for which the binding result is “no binding (tested: 100 nM)”.

In the case of B2, the binding result is listed as “no binding (tested: 100 nM)”.

As to B3, the binding result is “no binding (tested: 100 nM)”.

With B4, the binding result is “no binding (tested: 100 nM)”.

Regarding B5, the binding result is “no binding (tested: 100 nM)”.

Take B6: the binding result is listed as “no binding (tested: 100 nM)”.

A further test addresses T5, HEK-TROP2 Δ27-85. The test is described as above. Here is the method: as §1
For B1, the binding result is “no binding (tested: 100 nM)”.

Take B2: the binding result is recorded as “no binding (tested: 100 nM)”.

On to B3, for which the binding result is “no binding (tested: 100 nM)”.

B4: the binding result is listed as “no binding (tested: 100 nM)”.

With B5, the binding result is reported as “no binding (tested: 100 nM)”.

In the case of B6, the binding result is reported as “no binding (tested: 100 nM)”.

In a further test the target is T6, HEK-TROP2 Δ27-96. Described as above. Here is the method:
as §1
With B1, the binding result is listed as “no binding (tested: 100 nM)”.

With B2, the binding result is on record as “no binding (tested: 100 nM)”.

On to B3, for which the binding result is on record as “no binding (tested: 100 nM)”.

Turning to B4, the binding result was “no binding (tested: 100 nM)”.

As for B5, the binding result is recorded as “no binding (tested: 100 nM)”.

For the molecule B6, the binding result is given as “no binding (tested: 100 nM)”.

In a further test the target is T7, TROP2 delta 27-56 on HEK cells. The test is described as above. Here is the method: as §1
For B1, the binding result is “no binding (tested: 100 nM)”.

B2: the binding result was “no binding (tested: 100 nM)”.

For B3, the binding result is “no binding (tested: 100 nM)”.

Regarding B4, the binding result is given as “no binding (tested: 100 nM)”.

B5: the binding result is given as “no binding (tested: 100 nM)”.

Consider B6, for which the binding result is “no binding (tested: 100 nM)”.
